Laboratory results from publication PMC8054141.

What follows are substances tested against Cerulean-ICDI1.4 (assay: FRET two-hybrid assay). Details: parent: est. 26 µM^-1; read off a plot.

Row | Substance | Ka [µM⁻¹]
1 | Venus-IQ-A1.3 GPE[1647]AAA | 44
2 | Venus-IQ-A1.3 KYP[1626]AAA | 25
3 | Venus-IQ-A1.3 TTI[1632]AAA | 54
4 | Venus-IQ-A1.3 AIS[1653]AAA | 9.5
5 | Venus-IQ-A1.3 ALQ[1635]AAA | 8.5
6 | Venus-IQ-A1.3 RTL[1641]AAA | 7
7 | Venus-IQ-A1.3 LVG[1623]AAA | 27
8 | Venus-IQ-A1.3 HDI[1644]AAA | 55
9 | Venus-IQ-A1.3 IRR[1650]AAA | 8
10 | Venus-IQ-A1.3 AKN[1629]AAA | 22
11 | Venus-IQ-A1.3 AGL[1638]AAA | 7.5

Same assay, conditions: parent: est. 21; read off a plot

Row | Substance | Ka [µM⁻¹]
12 | Venus-PreIQ3-IQ-A1.3 K[+9]A | 15
13 | Venus-PreIQ3-IQ-A1.3 G[-15]A | 22
14 | Venus-PreIQ3-IQ-A1.3 K[+11]A | 15
15 | Venus-PreIQ3-IQ-A1.3 V[-11]A | 15
16 | Venus-PreIQ3-IQ-A1.3 T[-3]A | 34
17 | Venus-PreIQ3-IQ-A1.3 K[+8]A | 15
18 | Venus-PreIQ3-IQ-A1.3 L[-1]A | 7
19 | Venus-PreIQ3-IQ-A1.3 E[-12]A | 37
20 | Venus-PreIQ3-IQ-A1.3 R[+10]A | 15
21 | Venus-PreIQ3-IQ-A1.3 A[-4]T | 9
22 | Venus-PreIQ3-IQ-A1.3 F[+7]A | 15
23 | Venus-PreIQ3-IQ-A1.3 P[-18]A | 22
24 | Venus-PreIQ3-IQ-A1.3 T[-10]A | 37
25 | Venus-PreIQ3-IQ-A1.3 I[0]A | 24
26 | Venus-PreIQ3-IQ-A1.3 F[-6]A | 12
27 | Venus-PreIQ3-IQ-A1.3 P[-17]A | 16
28 | Venus-PreIQ3-IQ-A1.3 D[-14]A | 14
29 | Venus-PreIQ3-IQ-A1.3 F[+4]A | 3.2
30 | Venus-PreIQ3-IQ-A1.3 V[-9]A | 11
31 | Venus-PreIQ3-IQ-A1.3 Y[+3]A | 25
32 | Venus-PreIQ3-IQ-A1.3 D[-13]A | 28
33 | Venus-PreIQ3-IQ-A1.3 Y[-5]A | 4.7
34 | Venus-PreIQ3-IQ-A1.3 A[-16]T | 18
35 | Venus-PreIQ3-IQ-A1.3 G[-8]A | 32
36 | Venus-PreIQ3-IQ-A1.3 K[+6]A | 15
37 | Venus-PreIQ3-IQ-A1.3 R[+5]A | 16
38 | Venus-PreIQ3-IQ-A1.3 K[-7]A | 14
39 | Venus-PreIQ3-IQ-A1.3 Q[+1]A | 24
40 | Venus-PreIQ3-IQ-A1.3 D[+2]A | 18

Each substance was assayed against Venus-PreIQ3-IQ-A1.3 (assay: FRET two-hybrid assay). Details: parent: est. 22; read off a plot.

Row | Substance | Ka [µM⁻¹]
41 | Cerulean-ICDI1.4 LGD[1956]AAA | 50
42 | Cerulean-ICDI1.4 EED[1953]AAA | 40
43 | Cerulean-ICDI1.4 SHG[1877]AAA | 61
44 | Cerulean-ICDI1.4 CVH[1962]AAA | 51
45 | Cerulean-ICDI1.4 EMA[1959]AAA | 26
46 | Cerulean-ICDI1.4 HVP[1868]AAA | 42
47 | Cerulean-ICDI1.4 RFD[1950]AAA | 51
48 | Cerulean-ICDI1.4 EAV[1889]AAA | 37
49 | Cerulean-ICDI1.4 SAD[1883]AAA | 30
50 | Cerulean-ICDI1.4 SSL[1938]AAA | 46
51 | Cerulean-ICDI1.4 QGT[1935]AAA | 56
52 | Cerulean-ICDI1.4 ACR[1917]AAA | 14
53 | Cerulean-ICDI1.4 KRG[1880]AAA | 6.5
54 | Cerulean-ICDI1.4 EES[1944]AAA | 38
55 | Cerulean-ICDI1.4 GTH[1871]AAA | 48
56 | Cerulean-ICDI1.4 EGL[1895]AAA | 6
57 | Cerulean-ICDI1.4 DNA[1926]AAA | 7
58 | Cerulean-ICDI1.4 ALA[1908]AAA | 38
59 | Cerulean-ICDI1.4 GLF[1898]AAA | 3.5
60 | Cerulean-ICDI1.4 SDP[1874]AAA | 31
61 | Cerulean-ICDI1.4 ILS[1947]AAA | 37
62 | Cerulean-ICDI1.4 ASD[1929]AAA | 30
